B1: SH2 domain-containing protein 3C (Mus musculus), Q9QZS8-1 (parent)
chain: MTEMPKKTGRKFKFFKFKGLGSLSNLPRSFSLRRSSASASIRSCPEPDTFEATQDDMVTLPKSPPAYARSSDMYSHMGTMPRPNIKKAQKQQAVQKAQEVSRESHLVSRRLPEPPDLEAAKEAGEGTEALLEDTAPSAVEVDPMRELEDLTVDTEKEQVPGDVSPERTAAELEAAGDYVKFSKEKYILDSSPEKLHKELEEELKLSSTDLRSHAWYHGRIPREVSETLVQRNGDFLIRDSLTSLGDYVLTCRWHNQALHFKINKVVVKAGESYTHIRYLFEQESFDHVPALVRYHVGSRKAVSEQSGAIIYCPVNRTFPLRYLEASYGLSQGSSKTASPASPSGSKGSHMKRRSITMTDGLTTDKVTRSDGCPNSTSLPHPRDSIRNCALSMDQIPDLHSPLSPISESPSSPAYSTVTRVHAPSATPSTSAQPASPVARRSSEPQLCPGNTPKPPGESDRAPHASPSHTLCKASPSPSLSSYSDPDSGHYCQLQPPVRGSREQAAGETPRKARGSGERQKELLENGVSDGEWGKTFTVPVVEATSSFNLATFQSQLIPKENRPLEVALLRKVKELLSEVDARTLARHVTKVDCLVARILGVTKEMQTLMGVRWGMELLTLPHGRQLRLDLLERFHTMSIMLAVDILGCTGSAEERAALLHKTIQLAAELRGTMGNMFSFAAVMGALEMAQISRLEQTWMTLRQRHTEGAILYEKKLKPFLKSLNEGKEGPPLSNTTFPHVLPFITLLECDSAPAEGPEPWGSTEHGVEVVLAHLEAARTVAHHGGLYHTNAEVKLQGFQARPELLEVFSTEFQMRLLWGSQGANSSQAWRYEKFDKVLTALSHKLEPAIRSSEL
partner: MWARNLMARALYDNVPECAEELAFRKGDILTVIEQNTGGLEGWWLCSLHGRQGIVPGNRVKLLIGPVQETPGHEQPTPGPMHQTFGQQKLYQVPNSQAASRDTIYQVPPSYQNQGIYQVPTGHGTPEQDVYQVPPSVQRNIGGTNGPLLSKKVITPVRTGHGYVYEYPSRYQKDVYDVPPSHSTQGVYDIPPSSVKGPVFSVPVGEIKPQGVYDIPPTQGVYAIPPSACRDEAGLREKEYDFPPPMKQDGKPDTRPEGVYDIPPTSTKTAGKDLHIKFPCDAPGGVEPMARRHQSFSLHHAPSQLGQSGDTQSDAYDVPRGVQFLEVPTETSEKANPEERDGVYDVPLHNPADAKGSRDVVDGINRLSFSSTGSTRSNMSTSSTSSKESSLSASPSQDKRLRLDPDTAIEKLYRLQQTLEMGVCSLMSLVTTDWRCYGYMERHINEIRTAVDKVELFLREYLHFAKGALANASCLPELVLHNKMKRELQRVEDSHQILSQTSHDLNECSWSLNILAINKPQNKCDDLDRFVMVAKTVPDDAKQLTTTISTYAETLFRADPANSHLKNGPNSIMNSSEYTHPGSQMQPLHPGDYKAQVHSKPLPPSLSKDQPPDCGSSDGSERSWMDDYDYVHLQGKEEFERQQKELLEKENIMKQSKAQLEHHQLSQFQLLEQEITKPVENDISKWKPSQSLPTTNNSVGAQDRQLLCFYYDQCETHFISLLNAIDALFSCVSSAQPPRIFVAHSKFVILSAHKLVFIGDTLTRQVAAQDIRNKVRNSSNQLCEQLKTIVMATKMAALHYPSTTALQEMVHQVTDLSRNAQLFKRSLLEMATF

Variants of: B1
Details: with casl_mouse Nedd9, O35177

effect of a mutation on the interaction	Variant
disrupting interaction	Y787E

— IntAct's records for PubMed 20956287
